# From patent publication US20240270826A1 (NATIONAL RESEARCH COUNCIL OF CANADA, published 2024)
# Where “and” joins values, the source holds several entries; their conditions need not be identical. Identical values can stand only once. Like-named read-outs stand apart in the source and are kept apart here.
# B1: NRCoV2-02 VHH (VHH)
# VHH: EVQLVESGGGLVQAGGSLRLSCAASGFTFSNYAMNWVRQAPGKGLEWVSGISGRGDDTRYADSVKGRFTISRDNAKNTLFLQMRSLRPEDTGVYRCTKGPDLYYFGSGYSDRGQGTQVTVSS
# B2: NRCoV2-02 VHH (VHH)
# VHH: EVQLVESGGGLVQAGGSLRLSCAASGFTFSNYAMNWVRQAPGKGLEWVSGISGRGDDTRYADSVKGRFTISRDNAKNTLFLQMRSLRPEDTGVYRCTKGPDLYYFGSGYSDRGQGTQVTVSS
# B3: NRCoV2-MRed04 VHH (VHH)
# VHH: EVQLVESGGGLVQPGRSLRLSCAASGNSFSISTMGWFRQAPGKERELVASIWSDTTTSYADSVKGRFTISTDNTRTKVYLQMSSLNPEDTAVYYCAADRGFVVRGQYDYWGQGTQVTVSS
# B4: NRCoV2-1d VHH-Fc (Fc fusion)
# chain: EVQLVESGGGSVQPGGSLRLSCAASGSTLDYYAIGWFRQAPGKEREWVSSVSSSDGNTLYADSVKGRFTISRDNAKNTVYLQMNSLKAEDTAVYVCAADYSMRPFAVGRWHRDYEYWGQGTQVTVSS
# notes: bivalent VHH-Fc
# B5: NRCoV2-1d VHH (VHH)
# VHH: EVQLVESGGGSVQPGGSLRLSCAASGSTLDYYAIGWFRQAPGKEREWVSSVSSSDGNTLYADSVKGRFTISRDNAKNTVYLQMNSLKAEDTAVYVCAADYSMRPFAVGRWHRDYEYWGQGTQVTVSS
# B6: NRCoV2-SR03 VHH (VHH)
# VHH: AVQLVDSGGGLVQAGGSLRLSCAASGSIFSNNHMGWYRQAPGKQRELVAAISSGGKTNYADFAKGRFTISRDNAKNMVYLQMNSLKPEDTAVYYCNRGGWEYRSSYYIMGPHWGQGTQVTVSS
# B7: NRCoV2-17 VHH (VHH)
# VHH: EVQLQQSGGGLVQTGGSLRLSCAAAGSPFSQLAMSWYRQISGKERAWVASISPTGNRSYSKIAKGRFTISRDNAKNTVTLQMTSLKPEDTAAYICQAANVNGGDYWGQGTQVTVSS
# B8: NRCoV2-11 VHH-Fc (Fc fusion)
# chain: EVQLVSSGGGLVQPGGSLRLSCAASGSSLDSYSVSWFRQAPGKEREWISFISRYYSSTYYTDSVKGRFTTSRDGDQKTVHLQMNSLKPEDTAVYYCAARSRDFSSPFSATDTYTSWGQGTQVTVSS
# notes: bivalent VHH-Fc
# B9: NRCoV2-11 VHH (VHH)
# VHH: EVQLVSSGGGLVQPGGSLRLSCAASGSSLDSYSVSWFRQAPGKEREWISFISRYYSSTYYTDSVKGRFTTSRDGDQKTVHLQMNSLKPEDTAVYYCAARSRDFSSPFSATDTYTSWGQGTQVTVSS
# B10: NRCoV2-07 VHH-Fc (Fc fusion)
# chain: QVQLVQSGGGLVQPGGSLRLSCAASGVTLDYYAIGWFRQAPGKEREAVSCISSNGRRNHYVASVRGRFTISRDNAKSTVYLQMNSLKPEDTAVYYCAAVQDVHGDNYYCTSPNEYNVWGQGTQVTVSS
# notes: bivalent VHH-Fc
# B11: NRCoV2-07 VHH (VHH)
# VHH: QVQLVQSGGGLVQPGGSLRLSCAASGVTLDYYAIGWFRQAPGKEREAVSCISSNGRRNHYVASVRGRFTISRDNAKSTVYLQMNSLKPEDTAVYYCAAVQDVHGDNYYCTSPNEYNVWGQGTQVTVSS
# B12: NRCoV2-04 VHH-Fc (Fc fusion)
# chain: AVQLVDSGGGLVQPGGSLRLSCAASGSPFSNVVMAWYRQAPGKQRERVAFISGGGIADYIMSVKGRFTISRDNAKNTVYLQMNSLKPEDTAVYYCWSSYESTWGQGTQVTVSS
# notes: bivalent VHH-Fc
# B13: NRCoV2-MRed05 VHH-Fc (Fc fusion)
# chain: EVQLVESGGGLVQPGGSLRLSCAASGFTLDYYAIGWFRQAPGKEREGVSCISSSDGSTLYADSVKGRFTISRDNAKNTVYLQMNSLKPEDTAVYYCATGPQAYYSGSYYFQCPQAGMDYWGKGTQVTVSS
# notes: bivalent
# Legend:
# [1] = molecular target: S1-Fc (SARS-CoV-2 S1 aa16-685, Wuhan, human IgG1 Fc) (SARS-CoV-2 (Wuhan); human, UniProt P0DTC2 16-685)
# [2] = molecular target: T1, Human SARS-CoV-2_Wuhan S (SmT1) (SARS-CoV-2 (Wuhan), UniProt P0DTC2 14-1208); test: flow cytometry SVNA, VHH vs biotin-S binding to Vero E6 ACE2
# [3] = molecular target: T2, SARS-CoV-2 spike protein S on live virus, Wuhan (strain SARS-CoV-2/Canada/VIDO-01/2020) (SARS-CoV-2 (Wuhan), UniProt P0DTC2 14-1273); test: cell-based or functional assay
# [4] = molecular target: Human SARS-CoV-2_Wuhan S (SmT1) (SARS-CoV-2 (Wuhan), UniProt P0DTC2 14-1208); test: tandem SPR, immobilized S, orientation 1: VHH alone
# [5] = molecular target: T3, SARS-CoV-2 S2 (aa686-1208) (Wuhan) (SARS-CoV-2 Wuhan, UniProt P0DTC2 686-1208); test: SPR single-cycle kinetics, VHH over immobilized S2 [cont.]
# T3 construct: NRC; FLAG, 6xHis tags
# [6] = molecular target: T3, SARS-CoV-2 S2 (aa686-1208) (Wuhan); test: SPR, antigen on chip
# [7] = molecular target: T4, SARS-CoV-2 S1 (aa16-685) (Wuhan) (SARS-CoV-2 Wuhan, UniProt P0DTC2 16-685); test: SPR, antigen on chip
# T4 construct: NRC; FLAG, 6xHis tags
# [8] = molecular target: T5, SARS-CoV-2 S1-RBD fused to human Fc (S1-RBD-Fc) (SARS-CoV-2 Wuhan; human); test: SPR, antigen on chip
# [9] = molecular target: T6, SARS-CoV-2 spike trimer S (Wuhan, SmT1) (SARS-CoV-2 Wuhan); test: SPR, antigen on chip
# T6 construct: extracellular domain
# [10] = molecular target: T1, Human SARS-CoV-2_Wuhan S (SmT1); test: sandwich ELISA: biotin NRCoV2-02 VHH capture, antigen titrated, VHH-Fc detector
# [11] = molecular target: T7, SARS-CoV-2 S1 (aa16-685) (Wuhan) (SARS-CoV-2 (Wuhan), UniProt P0DTC2 16-685); test: as above
# [12] = molecular target: T8, SARS-CoV-2 S1-RBD (Wuhan) (SARS-CoV-2 (Wuhan), UniProt P0DTC2 319-541); test: as above
# T8 construct: domain: S1-RBD
# [13] = molecular target: T1, Human SARS-CoV-2_Wuhan S (SmT1); test: flow cytometry SVNA, VHH-Fc vs biotin-S binding to Vero E6 ACE2
# [14] = molecular target: T1, Human SARS-CoV-2_Wuhan S (SmT1); test: sandwich ELISA: biotin NRCoV2-02 VHH capture, antigen titrated, VHH-Fc detector; remark: listed apart in the source
# [15] = molecular target: T7, SARS-CoV-2 S1 (aa16-685) (Wuhan); test: as above; remark: listed apart in the source
# [16] = molecular target: T8, SARS-CoV-2 S1-RBD (Wuhan); test: as above; remark: listed apart in the source
# [17] = molecular target: T2, SARS-CoV-2 spike protein S on live …; test: cell-based or functional assay; remark: listed apart in the source
# [18] = molecular target: T3, SARS-CoV-2 S2 (aa686-1208) (Wuhan); test: SPR, antigen on chip; remark: listed apart in the source
# [19] = molecular target: T4, SARS-CoV-2 S1 (aa16-685) (Wuhan); test: SPR, antigen on chip; remark: listed apart in the source
# [20] = molecular target: T5, SARS-CoV-2 S1-RBD fused to human Fc …; test: SPR, antigen on chip; remark: listed apart in the source
# [21] = molecular target: T6, SARS-CoV-2 spike trimer S (Wuhan, SmT1); test: SPR, antigen on chip; remark: listed apart in the source
# [22] = molecular target: T6, SARS-CoV-2 spike trimer S (Wuhan, SmT1); test: flow cytometry, inhibition of S binding to ACE2 on Vero E6 cells, monomeric VHH
# [23] = molecular target: SARS-CoV-2 RBD (aa319-541) (Wuhan), monomeric (SARS-CoV-2 Wuhan, UniProt P0DTC2 319-541); test: SPR, monomeric RBD over captured VHH-Fc
binder,measurement,setting,value
B1,EC50,[1],0.2 nM
same,IC50,[2],5.1 nM
same,IC99,[2],15.5 nM
same,Imax %,[2],100%
same,MN100,[3],1.25 nM
B2,End 1st inj (RU),[4],33 RU
same,binding result,[5],no binding (tested: 10 nM)
B3,binding result,[6],no binding
same,Kd,[7],1.68 nM
same,koff,[7],0.00183 s⁻¹
same,kon,[7],1.09e+06 M⁻¹ s⁻¹
same,Kd,[8],2.06 nM
same,koff,[8],0.00176 s⁻¹
same,kon,[8],855000 M⁻¹ s⁻¹
same,Kd,[9],1.09 nM
same,koff,[9],0.0015 s⁻¹
same,kon,[9],1.39e+06 M⁻¹ s⁻¹
B4,Limit of detection,[10],1.4 ng/mL
same,Limit of detection,[11],1.37 ng/mL
same,Limit of detection,[12],0.15 ng/mL
same,IC50,[13],5.4 nM
same,IC99,[13],42 nM
same,Imax %,[13],89%
same,SC50,[14],25 ng/mL
same,SC50,[15],16 ng/mL
same,SC50,[16],1.7 ng/mL
same,LVNA IC50,[17],1.94 nM
same,MN100,[3],0.25 nM
B5,EC50,[1],1.1 nM and 1.3 nM
same,IC50,[2],8.6 nM
same,IC99,[2],40.8 nM
same,Imax %,[2],72%
B6,End 1st inj (RU),[4],18.5 RU
same,binding result,[5],no binding (tested: 20 nM)
B7,binding result,[18],no binding
same,Kd,[19],0.153 nM
same,koff,[19],9.66e-05 s⁻¹
same,kon,[19],629000 M⁻¹ s⁻¹
same,Kd,[20],0.395 nM
same,koff,[20],0.000224 s⁻¹
same,kon,[20],567000 M⁻¹ s⁻¹
same,Kd,[21],0.149 nM
same,koff,[21],9.79e-05 s⁻¹
same,kon,[21],659000 M⁻¹ s⁻¹
same,IC50,[22],9.4 nM
B8,Limit of detection,[10],1.4 ng/mL
same,Limit of detection,[11],0.46 ng/mL
same,Limit of detection,[12],0.08 ng/mL
same,IC50,[13],9.7 nM
same,IC99,[13],99.8 nM
same,Imax %,[13],63%
same,SC50,[14],20 ng/mL
same,SC50,[15],6 ng/mL
same,SC50,[16],0.8 ng/mL
same,LVNA IC50,[17],9.9 nM
B9,Kd,[19],0.167 nM
same,koff,[19],0.00018 s⁻¹
same,kon,[19],1.08e+06 M⁻¹ s⁻¹
same,Kd,[20],0.253 nM
same,koff,[20],0.000226 s⁻¹
same,kon,[20],892000 M⁻¹ s⁻¹
same,Kd,[21],0.0391 nM
same,koff,[21],4.73e-05 s⁻¹
same,kon,[21],1.21e+06 M⁻¹ s⁻¹
same,IC50,[22],16.8 nM
B10,Limit of detection,[10],1.4 ng/mL
same,Limit of detection,[11],0.46 ng/mL
same,Limit of detection,[12],0.08 ng/mL
same,IC50,[13],6.8 nM
same,IC99,[13],98.9 nM
same,Imax %,[13],89%
same,SC50,[14],18 ng/mL
same,SC50,[15],5 ng/mL
same,SC50,[16],0.7 ng/mL
same,LVNA IC50,[17],6.15 nM
same,MN100,[3],1.25 nM
B11,EC50,[1],1.1 nM and 1 nM
same,IC50,[2],7.5 nM
same,IC99,[2],65.3 nM
same,Imax %,[2],86%
B12,Limit of detection,[10],4.1 ng/mL
same,Limit of detection,[11],4.12 ng/mL
same,Limit of detection,[12],0.46 ng/mL
same,IC50,[13],11.7 nM
same,IC99,[13],420 nM
same,Imax %,[13],51%
same,SC50,[14],39 ng/mL
same,SC50,[15],25 ng/mL
same,SC50,[16],3.3 ng/mL
same,LVNA IC50,[17],1.65 nM
same,MN100,[3],1.25 nM
B13,Kd,[23],0.763 nM
same,koff,[23],0.000496 s⁻¹
same,kon,[23],650000 M⁻¹ s⁻¹
